Test results as given in PMC2120661.

Target: VLA-5 integrin (alpha5 beta1), affinity-isolated from mouse thymocyte lysate (mouse (endogenous in thymocytes)) (UniProt P09055)
Experiment: ELISA

percent inhibition of the binding of L1 to VLA-5 at 500 ug/ml peptide: 80%
B1: L1-RGD peptide (peptide)
peptide: CWRGDGRDLQERGDSDK
